This note sets out measurements from patent publication US20240011031, “COMPOSITIONS COMPRISING A NUCLEASE AND USES THEREOF” (Arbor Biotechnologies, Inc., published 2024).

The target of data set [1] is T1, Effector SEQ ID NO: 2 (CLUST.200916 nuclease).
T1 chain: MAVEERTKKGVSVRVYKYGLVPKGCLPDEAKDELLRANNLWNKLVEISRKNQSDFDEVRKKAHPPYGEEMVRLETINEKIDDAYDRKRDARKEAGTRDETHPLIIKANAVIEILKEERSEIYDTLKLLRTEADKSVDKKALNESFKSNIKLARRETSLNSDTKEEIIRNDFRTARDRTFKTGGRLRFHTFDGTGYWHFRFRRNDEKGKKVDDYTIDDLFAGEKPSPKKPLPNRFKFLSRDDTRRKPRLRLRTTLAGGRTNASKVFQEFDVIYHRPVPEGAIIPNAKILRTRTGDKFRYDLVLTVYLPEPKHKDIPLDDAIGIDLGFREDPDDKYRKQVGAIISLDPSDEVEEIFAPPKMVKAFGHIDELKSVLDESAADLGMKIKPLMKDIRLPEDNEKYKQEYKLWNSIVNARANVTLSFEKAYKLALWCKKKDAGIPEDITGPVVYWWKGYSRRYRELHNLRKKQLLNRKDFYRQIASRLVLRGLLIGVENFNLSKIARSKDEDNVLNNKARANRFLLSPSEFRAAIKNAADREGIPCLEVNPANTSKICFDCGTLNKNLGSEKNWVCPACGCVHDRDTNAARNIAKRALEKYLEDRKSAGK
Briefly: GFP fluorescence depletion in IVTT, 37 C, 12 h; PAM 5'-CCCG-3'. From the text: (§1) In this assay, an active CRISPR system designed to target GFP binds and cleaves the double-stranded DNA region encoding GFP, resulting in depletion of GFP fluorescence. The FDA assay involves in vitro transcription and translation, allowing production of an RNP from a DNA template encoding a CLUST.200916 effector and a DNA template containing a pre-crRNA sequence under a T7 promoter with direct repeat (DR)-spacer-direct repeat (DR); the spacer targeted GFP. In the same one-pot reaction, GFP and RFP were also produced as both the target and the fluorescence reporter (FIG. SA). The target GFP plasmid sequence is set forth in SEQ ID NO: 205, and the fluorescence reporter RFP plasmid sequence is set forth in SEQ ID NO: 206. GFP and RFP fluorescence values were measured every 20 min at 37° C. for 12 hr, using a TECAN Infinite F Plex plate reader. Since RFP was not targeted, its fluorescence was not affected and was therefore used as an internal signal control.
(§2) GFP signal was normalized to RFP signal, then the average fluorescence of three technical replicates was taken at each time point. GFP fluorescence depletion was then calculated by dividing the GFP signal of an effector incubated with a non-GFP targeting RNA guide (which instead targets a kanamycin resistance gene) by the GFP signal of an effector incubated with a GFP targeting RNA guide. […]

In data set [2] the target is T1, Effector SEQ ID NO: 2 (CLUST.200916 …). Briefly: GFP fluorescence depletion in IVTT, 37 C, 12 h; PAM 5'-CCCA-3'.
Text: as §1, §2

The target is the same in data set [3]. Briefly: GFP fluorescence depletion in IVTT, 37 C, 12 h; PAM 5'-TCCT-3'.
Text: as §1, §2

Data set [4] shares this target. Briefly: GFP fluorescence depletion in IVTT, 37 C, 12 h; PAM 5'-TCCA-3'.
Text: as §1, §2

Data set [5] shares this target. Briefly: GFP fluorescence depletion in IVTT, 37 C, 12 h; PAM 5'-ACCG-3'.
Text: as §1, §2

B1: pre-crRNA GFP Target 3 ; GFP Target 3 (ssRNA ; dsDNA)
RNA: GGUAUAACGACCCUGCGAAGUGGGGUGUAACUUCGACUAGUGCAGAUGUAUUUCGCUUUAAUGGUACGUAUAACGACCCUGCGAAGUGGGGUGUAACUUCGACCUAACCCCUCUCUAAACGGAGGGGUUU
DNA 1: TAGTGCAGATGTATTTCGCTTTAATGGTAC
DNA 2: GTACCATTAAAGCGAAATACATCTGCACTA
On to B1, for which the activity in data set [1] is greater than 1 depletion ratio.

B2: pre-crRNA GFP Target 1 ; GFP Target 1 (ssRNA ; dsDNA)
RNA: GGUAUAACGACCCUGCGAAGUGGGGUGUAACUUCGACAGAGCGUACCAUCAGCUUCGAAGGCGACGGGUAUAACGACCCUGCGAAGUGGGGUGUAACUUCGACCUAACCCCUCUCUAAACGGAGGGGUUU
DNA 1: AGAGCGTACCATCAGCTTCGAAGGCGACGG
DNA 2: CCGTCGCCTTCGAAGCTGATGGTACGCTCT
Take B2: the activity in data set [2] is greater than 1 depletion ratio.

B3: pre-crRNA GFP Target 4 ; GFP Target 4 (ssRNA ; dsDNA)
RNA: GGUAUAACGACCCUGCGAAGUGGGGUGUAACUUCGACUGAUGUGGCUCGGGUACUUGGCGAAACACUGUAUAACGACCCUGCGAAGUGGGGUGUAACUUCGACCUAACCCCUCUCUAAACGGAGGGGUUU
DNA 1: TGATGTGGCTCGGGTACTTGGCGAAACACT
DNA 2: AGTGTTTCGCCAAGTACCCGAGCCACATCA
In data set [3], B3 had an activity greater than 1 depletion ratio.

B4: pre-crRNA GFP Target 5 ; GFP Target 5 (ssRNA ; dsDNA)
RNA: GGUAUAACGACCCUGCGAAGUGGGGUGUAACUUCGACUGACGGCAUUGACGGAAGGUGCAAAACUGUGUAUAACGACCCUGCGAAGUGGGGUGUAACUUCGACCUAACCCCUCUCUAAACGGAGGGGUUU
DNA 1: TGACGGCATTGACGGAAGGTGCAAAACTGT
DNA 2: ACAGTTTTGCACCTTCCGTCAATGCCGTCA
Turning to B4, the activity in data set [4] was greater than 1 depletion ratio.

B5: pre-crRNA GFP Target 2 ; GFP Target 2 (ssRNA ; dsDNA)
RNA: GGUAUAACGACCCUGCGAAGUGGGGUGUAACUUCGACAAAAACUGGUUACCAAAUGCAGCCAAAUGAGUAUAACGACCCUGCGAAGUGGGGUGUAACUUCGACCUAACCCCUCUCUAAACGGAGGGGUUU
DNA 1: AAAAACTGGTTACCAAATGCAGCCAAATGA
DNA 2: TCATTTGGCTGCATTTGGTAACCAGTTTTT
For B5, the activity in data set [5] is greater than 1 depletion ratio.
